Experimental findings from patent publication US6509447B1, “G protein chimeras and methods of screening compounds” (Glaxo Welcome Inc., priority 1997, dated 2003) are described below.

Test [1] concerns purinergic nucleotide P2Y2 receptor. The test is described as follows: CPRG assay, MMY9 cells expressing P2Y2 receptor plus Gα subunit. On the set-up: key: weak activation insufficient to carry out curve-fitting was detected; NC: no coupling was detected. Type of test: cell-based, human. As for the experimental part: (§1) Assay for combined FUS1-lacZ and FUS1-HIS3 Expression. In vivo assays of reporter gene induction (CPRG assays) were carried out by suspending cells to 0.02 OD600 in 200 μl SC-glucose (2%) lacking tryptophan, uracil and histidine. This medium was supplemented with agonists, and additionally 10 mM 3-aminotriazole and the β-galactosidase (lacZ) substrate chlorophenolred-β-D-galactopyranoside (CPRG; Boehringer) to a concentration of 0.1 mg/ml. To visualise the colour change reaction, the medium was buffered to pH 7 with 0.1 M sodium phosphate. The assay was conducted in a 96-well microtitre plate format. Plates were incubated for 24 hours without agitation, and absorbance at 570 nm was determined using a Victor microtitre plate reader (Wallac). EC50 values (+/−standard error) were estimated by curve-fitting, using the Robosage software package.
Sequence of purinergic nucleotide P2Y2 receptor (P41231 1-347 limits assumed): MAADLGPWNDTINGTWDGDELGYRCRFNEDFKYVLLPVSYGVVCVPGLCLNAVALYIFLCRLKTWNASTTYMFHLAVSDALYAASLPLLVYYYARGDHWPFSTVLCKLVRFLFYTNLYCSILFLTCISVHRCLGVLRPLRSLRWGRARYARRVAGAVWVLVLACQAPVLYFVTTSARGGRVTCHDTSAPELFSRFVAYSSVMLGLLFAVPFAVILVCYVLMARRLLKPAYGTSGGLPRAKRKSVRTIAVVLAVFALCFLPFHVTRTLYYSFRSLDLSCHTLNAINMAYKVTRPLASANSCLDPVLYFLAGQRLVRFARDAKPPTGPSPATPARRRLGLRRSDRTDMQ
(§2) This experiment illustrates that, for certain receptors, the efficiency of coupling to the yeast pheromone response pathway can be enhanced by creating chimeras between yeast and mammalian Gα subunits. […] Agonist-dependent activation of FUS1-lacZ was determined by incubating cells in medium supplemented with the chromogenic, cell-permeant β-galacosidase (lacZ) substrate, chlorophenolred-β-D-galactopyranoside (CPRG; Boehringer Mannheim). […]

For test [2] the test system is unchanged. The test is described as follows: CPRG assay, MMY11 cells expressing P2Y2 receptor plus Gα subunit. It is filed as cell-based, human. On the set-up: key: weak activation insufficient to carry out curve-fitting was detected; NC: no coupling was detected. As for the experimental part: as §1
MMY11 was used in an experiment in which cells were transformed with pairs of plasmids as before, one to express a Gα subunit and the other a receptor expression construct. […] Where pheromone response pathway activation was detected, the agonist concentration required to yield a half-maximal response (EC50+/−standard error; all values in nM except where otherwise indicated) was determined by curve-fitting, and is shown in Table 4A. Where no coupling was detected, this is also indicated (NC).

The target of a further test is T1, serotonin 5HT1A receptor (Homo sapiens, UniProt P08908).
T1 construct: expressed in transfected cells; host or cells: Saccharomyces cerevisiae strains MMY9 and MMY11, plasmid pDT-PGK-5-HT1A
T1 sequence (P08908 1-422): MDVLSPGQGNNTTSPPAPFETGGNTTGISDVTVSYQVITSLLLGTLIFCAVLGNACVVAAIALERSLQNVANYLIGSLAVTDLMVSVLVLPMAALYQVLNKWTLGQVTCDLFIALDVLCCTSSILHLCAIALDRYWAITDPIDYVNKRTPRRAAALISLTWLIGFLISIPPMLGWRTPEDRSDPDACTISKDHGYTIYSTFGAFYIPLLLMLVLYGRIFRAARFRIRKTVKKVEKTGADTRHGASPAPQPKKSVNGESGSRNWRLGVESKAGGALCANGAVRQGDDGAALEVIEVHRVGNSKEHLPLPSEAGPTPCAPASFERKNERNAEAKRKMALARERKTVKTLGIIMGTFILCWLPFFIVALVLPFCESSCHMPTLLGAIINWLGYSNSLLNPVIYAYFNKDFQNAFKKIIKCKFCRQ
As to the kind of experiment: CPRG assay, MMY9 cells expressing 5-HT1A receptor plus Gα subunit. Type of test: cell-based. On the set-up: key to coupling class where no EC50 could be fitted: weak activation insufficient to carry out curve-fitting was detected; NC: no coupling was detected. As for the experimental part: as §1, §2

B1: Gpa1p: endogenous yeast Gα subunit, product of the GPA1 gene (protein, UniProt P08539 2-472, looked up)
Guanine nucleotide-binding …: GCTVSTQTIGDESDPFLQNKRANDVIEQSLQLEKQRDKNEIKLLLLGAGESGKSTVLKQLKLLHQGGFSHQERLQYAQVIWADAIQSMKILIIQARKLGIQLDCDDPINNKDLFACKRILLKAKALDYINASVAGGSDFLNDYVLKYSERYETRRRVQSTGRAKAAFDEDGNISNVKSDTDRDAETVTQNEDADRNNSSRINLQDICKDLNQEGDDQMFVRKTSREIQGQNRRNLIHEDIAKAIKQLWNNDKGIKQCFARSNEFQLEGSAAYYFDNIEKFASPNYVCTDEDILKGRIKTTGITETEFNIGSSKFKVLDAGGQRSERKKWIHCFEGITAVLFVLAMSEYDQMLFEDERVNRMHESIMLFDTLLNSKWFKDTPFILFLNKIDLFEEKVKSMPIRKYFPDYQGRVGDAEAGLKYFEKIFLSLNKTNKPIYVKRTCATDTQTMKFVLSAVTDLIIQQNLKKIGII
For B1, the “coupling class where no EC50 could be fitted” value in test [1] is recorded as “weak”; in test [2] it was “weak”; with serotonin 5HT1A receptor, “NC”. Also, in the test with serotonin 5HT1A receptor, the “agonist-dependent induction of FUS1-LacZ / coupling, in words” value is given as “failed to signal”.
